The source of these data is PMC8584533, “Hetero/Homo-Complexes of Sucrose Transporters May Be a Subtle Mode to Regulate Sucrose Transportation in Grape Berries” (International Journal of Molecular Sciences, 2021).

In data set [1] the target is T1, SUC11 (Chardonnay) (Vitis vinifera, UniProt Q9SQK6).
T1 construct: gene VvSUC11; full length, 500 residues, one site different from Thompson Seedless; expressed in yeast SUSY7/ura3
T1 sequence (Q9SQK6 1-501): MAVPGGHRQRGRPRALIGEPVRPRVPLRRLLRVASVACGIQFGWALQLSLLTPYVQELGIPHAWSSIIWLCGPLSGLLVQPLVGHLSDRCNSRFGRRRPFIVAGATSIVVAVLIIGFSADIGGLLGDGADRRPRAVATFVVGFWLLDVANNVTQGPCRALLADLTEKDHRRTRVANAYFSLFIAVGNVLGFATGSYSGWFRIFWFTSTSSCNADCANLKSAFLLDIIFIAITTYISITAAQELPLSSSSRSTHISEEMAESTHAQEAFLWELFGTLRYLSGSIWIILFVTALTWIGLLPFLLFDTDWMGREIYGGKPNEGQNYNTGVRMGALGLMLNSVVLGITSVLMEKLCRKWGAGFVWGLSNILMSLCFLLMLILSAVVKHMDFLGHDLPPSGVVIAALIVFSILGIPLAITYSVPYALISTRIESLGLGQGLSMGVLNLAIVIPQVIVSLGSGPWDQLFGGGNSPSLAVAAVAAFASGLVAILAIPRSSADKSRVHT
Description: sucrose transport in yeast SUSY7/ura3. It is filed as cell-based. The note with it: 0.1, 0.2 and 2 mM sucrose.

Substrate in data set [2]: OC[C@H]1O[C@@](CO)(O[C@H]2O[C@H](CO)[C@@H](O)[C@H](O)[C@H]2O)[C@@H](O)[C@@H]1O
Description: cells, lysate or membranes. Conditions: pH 5.0, 30 °C, 10 mM glucose, 20 min, expressed alone, labelled compound. The format is cell-based, Vitis vinifera.

With `OC[C@H]1O[C@@](CO)(O[C@H]2O[C@H](CO)[C@@H](O)[C@H](O)[C@H]2O)[C@@H](O)[C@@H]1O` [sucrose], in data set [1], the sucrose transport ability entry is reported as “did not affect the structure (Figure S5a) or sucrose transport ability”.

B1: VvSUC11 (Vitis vinifera) (protein)
chain: MAVPGGHRQRGRPRALIGEPVRPRVPLRRLLRVASVACGIQFGWALQLSLLTPYVQELGIPHAWSSIIWLCGPLSGLLVQPLVGHLSDRCNSRFGRRRPFIVAGATSIVVAVLIIGFSADIGGLLGDGADRRPRAVATFVVGFWLLDVANNVTQGPCRALLADLTEKDHRRTRVANAYFSLFIAVGNVLGFATGSYSGWFRIFWFTSTSSCNADCANLKSAFLLDIIFIAITTYISITAAQELPLSSSSRSTHISEEMAESTHAQEAFLWELFGTLRYLSGSIWIILFVTALTWIGLLPFLLFDTDWMGREIYGGKPNEGQNYNTGVRMGALGLMLNSVVLGITSVLMEKLCRKWGAGFVWGLSNILMSLCFLLMLILSAVVKHMDFLGHDLPPSGVVIAALIVFSILGIPLAITYSVPYALISTRIESLGLGQGLSMGVLNLAIVIPQVIVSLGSGPWDQLFGGGNSPSLAVAAVAAFASGLVAILAIPRSSADKSRVHT
notes: full length, 500 residues (printed), leaf cDNA in pDR196, expressed in yeast SUSY7/ura3
For the molecule B1, the Km in data set [2] came to 354 µM.

B2: VvSUC12 (Vitis vinifera) (protein)
chain: MPETMDAPSIRVPYKNLKQAEVELVAADEPRHGADLNSRVPNGTSDPSSSPSSIPHPPKHGGLRTLILSCMIAAGVQFGWALQLSLLTPYIQTLGIEHAFSSFIWLCGPITGLVVQPCVGIWSDKCSSKYGRRRPFILAGSLMISVAVTIIGFSADIGYLLGDTNMDCRKFKGTRTWAAIIFVLGFWMLDLANNTVQGPARALLADLSGPDQRNSANAIFCSWMAVGNILGFSAGASGHWHRWFPFLLNKACCEACGNLKAAFLIAVVFLTLCTLVTLYFAEEVPLMAYQPHHLSDSAPLLDNPQQIGFDNSKSKLDMSAVDNATGNNPESSYEINKNAKHLTPIVQEQNESFSDGPGAVLVNLLTSLRHLPPAMHSVLLVMALSWLSWFPFFLFDTDWMGREVYHGDPKGDESAVKAYDAGVREGAFGLLLNSVDLGISSFLIEPMCQRMGARLVWAMSNFIVFACMAGTAIISLVSVNEYITEGIQHAIGENRAIKIASLVVFALLGFPLSITYSVPFSITAELTADTGGGQGLAIGVLNLAIVIPQMIVSLGAGPWDALFGGGNIPAFVLAALFALAAGVIATLKLPNLSSSSYKSSGFHFGNFPASMR
notes: full length, 611 residues (printed), leaf cDNA in pDR196, expressed in yeast SUSY7/ura3
Consider B2, for which the Km in data set [2] was 943 µM.

B3: VvSUC27 (Vitis vinifera) (protein)
chain: MELAKPSSVFAIQDHQSSSPPTPIWKTVVVASIAAGIQFGWALQLSLLTPYVQLLGIPHKWAAFIWLCGPISGMIVQPVVGYHSDRCTSRFGRRRPFIAAGAVLVAIAVFLIGYAADIGRVSGDPLHNTIKTRAVAVFVVGFWILDVANNMLQGPCRALLADLSGTSARRTRTANALYSFFMAVGNVLGYAAGSFSKLHKMFPFARTQACDLYCANLKSCFFLSIALLLILTIIAFATVHETPLNRADIAVVEAGQPFYSQMMNAFRQLRRPMWVLLLVTCLNWIGWFPFLLFDTDWMGREVYGGTVGEGPRGRLYDLGVRAGSLGLMLNSVVLGLMSLGVEFFGRGVGGVKRLWGGVNFLLALCLALTVLVSKLAASWRHSLGGELHPPPIGIKAGALSLFAVMGVPLAITYSIPFALASIFCHSSGAGQGLSLGVLNLAIVVPQMMVSVASGPWDARFGGGNLPAFVVGAFAAALNGVLALTMLPAPPPDVPNTKDERTQPSS
notes: full length, 504 residues (printed), leaf cDNA in pDR196, expressed in yeast SUSY7/ura3
Regarding B3, the Km in data set [2] was determined as 3064 µM.

For orientation: Km means the substrate concentration at which the rate is half of its maximum.
